Results from publication PMC9266650 (2022).
Like-named read-outs stand apart in the source and are kept apart here. Values belong to the binder of their own block, whether it stands above or below them.

Columns and labels:
[1] = biological target: T1, T148-ADP-ribosylated-actin (100% TccC3-ADP-ribosylated actin) ( (purified from rabbit or …, UniProt P68135 1-377))
[2] = biological target: T2, Skeletal actin, unmodified (0% ADPR-actin control) ( (purified from rabbit or …, UniProt P68135 1-377))
[3] = biological target: T1, T148-ADP-ribosylated-actin (100% …); assay: FP
[4] = biological target: T2, Skeletal actin, unmodified (0% …); assay: FP

Kd [1]: 331 nM
Kd [2]: 21.6 nM
B1: Actin-depolymerizing factor (natural protein)
chain: MASGVQVADEVCRIFYDMKVRKCSTPEEIKKRKKAVIFCLSADKKCIIVEEGKEILVGDVGVTITDPFKHFVGMLPEKDCRYALYDASFETKESRKEELMFFLWAPELAPLKSKMIYASSKDAIKKKFQGIKHECQANGPEDLNRACIAEKLGGSLIVAFEGCPV

Kd [3]: 2440 nM
B2: Thymosin-β4 (peptide)
chain: SDKPDMAEIEKFDKSKLKKTETQEKNPLPSKETIEQEKQAGES
modifications: not fully specified; ADP-ribose on threonine-148 (T148)

Kd [4]: 380 nM
B3: Thymosin-β4 (peptide)
chain: SDKPDMAEIEKFDKSKLKKTETQEKNPLPSKETIEQEKQAGES
modifications: not fully specified
